Test results: patent US20110143428A1 (Genentech, published 2011)
Substitutions are numbered along the chain they refer to. Read-outs that look alike come from different tables or passages of the source.

B1: anti-VEGF-C antibody mVC4.5 (mIgG2a) (antibody, V domains shown)
VH: EVQLVESGGGLVQPGGSLRLSCAASGFTFTDNWIHWVRQAPGKGLEWVAVISPYSGATYYADSVKGRFTISADTSKNTAYLQMNSLRAEDTAVYYCARDADYKYAFWAFDYWGQGTLVTVSS
VL: DIQMTQSPSSLSASVGDRVTITCRASQDVSTAVAWYQQKPGKAPKLLIYSASFLYSGVPSRFSGSGSGTDFTLTISSLQPEDFATYYCQQSYTTPPTFGQGTKVEIKR
notes: VC4.5 variable domains on a murine IgG2a backbone; also called VC4.5 murine IgG2a form; murine backbone anti-VEGF-C antibody
B2: anti-VEGF-C IgG VC3 (antibody, V domains shown)
VH: EVQLVESGGGLVQPGGSLRLSCAASGFTFTNTDIHWVRQAPGKGLEWVAWISPSSGYTDYADSVKGRFTISADTSKNTAYLQMNSLRAEDTAVYYCARWRDYRFGGVMDYWGQGTLVTVSS
VL: DIQMTQSPSSLSASVGDRVTITCRASQDVSTAVAWYQQKPGKAPKLLIYSASFLYSGVPSRFSGSGSGTDFTLTISSLQPEDFATYYCQQSYTTPPTFGQGTKVEIK
notes: Only the six HVRs are tied to this clone; also called clone VC3
B3: anti-VEGF-C IgG VC4 (antibody, V domains shown)
VH: B1 VH with A49G, K103D, F106G
VL: B2 VL
notes: Only the six HVRs are tied to this clone; also called clone VC4
B4: VC4.2 (antibody, V domains shown)
VH: B1 VH with A49G, K103A, F106W
VL: B2 VL
notes: also called clone VC4.2
B5: VC4.3 (antibody, V domains shown)
VH: B1 VH with D31Y, N32S, A49G, V50F, Y54G, S55V, A57Y, T58S, K103D, F106G
VL: B2 VL with S91T, T93R, T94I, P96Y
notes: also called clone VC4.3
B6: VC4.4 (antibody, V domains shown)
VH: B1 VH with A49G, A100V, K103Y, F106W, F109L
VL: B2 VL
notes: also called clone VC4.4
B7: VC4.5Fab (Fab, V domains shown)
VH: B1 VH
VL: B1 VL
B8: anti-VEGF-C IgG VC1 (antibody, V domains shown)
VH: EVQLVESGGGLVQPGGSLRLSCAASGFTFSDSDIHWVRQAPGKGLEWVAWISPYSGYTDYADSVKGRFTISADTSKNTAYLQMNSLRAEDTAVYYCARLFEVIFDYWGQGTLVTVSS
VL: B2 VL
notes: Only the six HVRs are tied to this clone; also called clone VC1
B9: VC1.2 (antibody, V domains shown)
VH: B8 VH with V102I
VL: B2 VL
notes: also called clone VC1.2
B10: VC1.3 (antibody, V domains shown)
VH: B8 VH with A97V
VL: B2 VL
notes: also called clone VC1.3
B11: VC1.4 (antibody, V domains shown)
VH: B8 VH with A97V, E101G
VL: B2 VL
notes: also called clone VC1.4
B12: VC1.5 (antibody, V domains shown)
VH: B8 VH with F100W
VL: B2 VL
notes: also called clone VC1.5
B13: VC1.6 (antibody, V domains shown)
VH: B8 VH with A97V, E101D
VL: B2 VL
notes: also called clone VC1.6
B14: VC1.7 (antibody, V domains shown)
VH: B8 VH with E101D, V102I
VL: B2 VL
notes: also called clone VC1.7
B15: VC1.8 (antibody, V domains shown)
VH: B8 VH with A97T, E101T, V102I
VL: B2 VL
notes: also called clone VC1.8
B16: VC1.10 (antibody, V domains shown)
VH: B8 VH with A97V, E101G, V102I
VL: B2 VL
notes: also called clone VC1.10
B17: VC1.11 (antibody, V domains shown)
VH: B8 VH with A97V, F100Y, E101D
VL: B2 VL
notes: also called clone VC1.11
B18: VC1.12 (antibody, V domains shown)
VH: B8 VH with S55V, Y57F, E101D
VL: B1 VL
notes: also called clone VC1.12
B19: VC1.12.6 (antibody, V domains shown)
VH: B8 VH with S55V, Y57F, E101D
VL: B2 VL with T93N
notes: also called clone VC1.12.6
B20: VC1.12.1 (antibody, V domains shown)
VH: B8 VH with S55V, Y57F, E101D
VL: B2 VL with T93N, T94I
notes: also called clone VC1.12.1
B21: VC1.12.2 (antibody, V domains shown)
VH: B8 VH with S55V, Y57F, E101D
VL: B2 VL with T93W, P96L
notes: also called clone VC1.12.2
B22: VC1.12.3 (antibody, V domains shown)
VH: B8 VH with S55V, Y57F, E101D
VL: B2 VL with S91T, T93A, T94I
notes: also called clone VC1.12.3
B23: VC1.12.4 (antibody, V domains shown)
VH: B8 VH with S55V, Y57F, E101D
VL: B2 VL with T94S, P96T
notes: also called clone VC1.12.4
B24: VC1.12.5 (antibody, V domains shown)
VH: B8 VH with S55V, Y57F, E101D
VL: B2 VL with P96T
notes: also called clone VC1.12.5
B25: VC1.12.8 (antibody, V domains shown)
VH: B8 VH with S55V, Y57F, E101D
VL: B2 VL with T93I
notes: also called clone VC1.12.8
B26: VC1.12.9 (antibody, V domains shown)
VH: B8 VH with S55V, Y57F, E101D
VL: B2 VL with T94I
notes: also called clone VC1.12.9
B27: VC1.12.10 (antibody, V domains shown)
VH: B8 VH with S55V, Y57F, E101D
VL: B2 VL with T93Y, T94S, P96L
notes: also called clone VC1.12.10

What was measured:
[1] = target: T1, biotinylated human VEGF-C (human, UniProt P49767 112-227, limits assumed, biotin conjugated (site not stated)); experiment: receptor blocking ELISA: fixed biotin-VEGF-C incubated 2 h with serial dilutions of IgG, unbound VEGF-C captured on immobilized VEGFR3-Fc, streptavidin-HRP, OD450; blocked interaction VEGF-C/VEGFR3. The value stands in brackets after the curve's name in the legend box; the quantity is not named on the sheet, the value agrees with the midpoint of the curve
T1 construct: Panning used the matured form from R&D Systems; also called biotin conjugated VEGF-C; biotinylated VEGF-C
T1 sequence: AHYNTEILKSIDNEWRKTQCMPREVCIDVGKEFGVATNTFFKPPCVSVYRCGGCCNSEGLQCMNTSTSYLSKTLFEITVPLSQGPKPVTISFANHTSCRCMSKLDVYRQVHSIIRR

hVEGF-C [2] = target: T2, hVEGF-C (human, UniProt P49767); experiment: SPR, BIAcore-3000, 25 C: human IgG captured on CM5 chip (about 500 RU), human VEGF-C injected at 12.5-500 nM, 1:1 Langmuir fit
T2 construct: unlabelled; also called human VEGF-C
T2 sequence (VEGF-C, looked up): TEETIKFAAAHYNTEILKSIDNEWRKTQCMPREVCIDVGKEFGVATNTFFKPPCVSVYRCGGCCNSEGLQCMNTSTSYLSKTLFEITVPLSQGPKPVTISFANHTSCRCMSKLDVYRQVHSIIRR

hVEGF-C [3] = target: T2, hVEGF-C; experiment: phage competition ELISA: phage-displayed clone incubated with increasing soluble hVEGF-C, unbound phage captured on hVEGF-C coated plate, anti-M13-HRP, OD450
hVEGF-C [4] = target: T2, hVEGF-C; experiment: as above; remark: listed apart in the source
[5] = target: T3, mature VEGF-C (R&D Systems) (human, UniProt P49767 103-227); experiment: SPR, Biacore (Fab), VC4.5 Fab protein; set-up for the Fab not described (paragraph 557 describes captured IgG)
T3 construct: Bought from R&D Systems; also called human VEGF-C matured form (R&D systems)
T3 sequence: T2 sequence (VEGF-C, looked up)

hVEGF-C [6] = target: T2, hVEGF-C; experiment: phage competition ELISA: phage-displayed clone incubated with increasing soluble hVEGF-C, unbound phage captured on hVEGF-C coated plate, anti-M13-HRP, OD450; remark: listed apart in the source
VEGF-C C137S = target: T4, VEGF-C C137S; experiment: phage competition ELISA as in paragraph 556 with human VEGF-C C137S as antigen: phage-displayed clone, soluble antigen varied, anti-M13-HRP, OD450
T4 construct: also called hVEGF-C C137S; human VEGF-C C137S
T4 VEGF-C: T1 sequence with C26S

Row | Binder | IC50 (hVEGF-C [6]) [nM] | IC50 (VEGF-C C137S) [nM] | further results
1 | B1 |  |  | IC50 [1]: 0.74 nM
2 | B2 |  |  | Kd (hVEGF-C [2]): 0.92 nM; koff (hVEGF-C [2]): 0.000541 s⁻¹; kon (hVEGF-C [2]): 588000 M⁻¹ s⁻¹; IC50 (hVEGF-C [3]): 300 nM
3 | B3 |  |  | Kd (hVEGF-C [2]): 0.97 nM; koff (hVEGF-C [2]): 0.000263 s⁻¹; kon (hVEGF-C [2]): 271000 M⁻¹ s⁻¹; IC50 (hVEGF-C [3]): 32 nM; IC50 (hVEGF-C [4]): 32 nM
4 | B4 |  |  | IC50 (hVEGF-C [4]): 2.64 nM
5 | B5 |  |  | IC50 (hVEGF-C [4]): 2.72 nM
6 | B6 |  |  | IC50 (hVEGF-C [4]): 2.17 nM
7 | B7 |  |  | Kd [5]: 27.5 nM
8 | B8 | 21.5 |  | Kd (hVEGF-C [2]): 0.17 nM; koff (hVEGF-C [2]): 0.000189 s⁻¹; kon (hVEGF-C [2]): 1.07e+06 M⁻¹ s⁻¹; IC50 (hVEGF-C [3]): 38 nM
9 | B9 | 27.1 |  | 
10 | B10 | 22.1 |  | 
11 | B11 | 40.7 |  | 
12 | B12 | 28 |  | 
13 | B13 | 15.4 |  | 
14 | B14 | 20 |  | 
15 | B15 | 22.5 |  | 
16 | B16 | 17 |  | 
17 | B17 | 25.3 |  | 
18 | B18 | 5.1 | 32.4 | 
19 | B19 |  | 32.8 | 
20 | B20 |  | 7.29 | 
21 | B21 |  | 25.9 | 
22 | B22 |  | 23 | 
23 | B23 |  | 7.7 | 
24 | B24 |  | 28.1 | 
25 | B25 |  | 13.7 | 
26 | B26 |  | 4.8 | 
27 | B27 |  | 16.8 | 
